Results from article PMC2879156.

What was measured:
SarA = molecular target: T1, SarA (Staphylococcus aureus, UniProt Q7A1N5 1-124); assay: EMSA
T1 sequence: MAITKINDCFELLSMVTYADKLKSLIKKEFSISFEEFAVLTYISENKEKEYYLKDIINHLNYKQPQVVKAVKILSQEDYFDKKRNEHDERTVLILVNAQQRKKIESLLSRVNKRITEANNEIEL

SarA C9A = SarA C9A (Staphylococcus aureus, UniProt Q7A1N5 1-124, C9A); assay: EMSA

B1: agr B1/B2 (dsDNA)
DNA 1: ATGTTAAAATATTAAATACAAATTACATTTAACAGTTAAGTATTTATTTCCTACAGTTA
DNA 2: TAACTGTAGGAAATAAATACTTAACTGTTAAATGTAATTTGTATTTAATATTTTAACAT
B1: binds (SarA); binds (SarA C9A).
